Consider 1 molecule from article PMC4793595.

The experiment addresses T1, MS2 coat protein (bacteriophage MS2), P03612.
T1 chain: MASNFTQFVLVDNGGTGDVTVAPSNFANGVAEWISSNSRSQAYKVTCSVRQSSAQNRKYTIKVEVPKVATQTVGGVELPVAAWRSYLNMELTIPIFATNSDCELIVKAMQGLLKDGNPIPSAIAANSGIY
The experiment can be described thus: native MS + AUC. To be noted: remark: other sources report otherwise.

B1: MS2 coat protein, P03612 1-130 (natural protein)
chain: MASNFTQFVLVDNGGTGDVTVAPSNFANGVAEWISSNSRSQAYKVTCSVRQSSAQNRKYTIKVEVPKVATQTVGGVELPVAAWRSYLNMELTIPIFATNSDCELIVKAMQGLLKDGNPIPSAIAANSGIY
For orientation: stoichiometry N means a count of units in the complex or per binding partner. For B1, the stoichiometry N stood at 2.
